The values below come from the supplement of paper PMC5998384.

Series [1] has as its system HeLa Kyoto. The series is described as follows: melting temperature (median over replicates), in situ; higher = more thermally stable.
Series [2] has as its system HeLa Kyoto. The series is described as follows: thermal stability score vs G1/S (z-score of summed log2 fold changes over temperatures); higher = more thermally stable than in G1/S.
The test system of series [3] is HeLa Kyoto. Briefly: solubility change mitosis vs G1/S (difference of NP-40 vs SDS log2 ratios) (log2 ratio difference); higher = more soluble in mitosis.
Series [4] concerns HeLa Kyoto. The series is described as follows: solubility in G1/S (NP-40 vs SDS abundance) (log2 ratio); higher = more soluble. As to conditions: cell cycle stage: G1/S.
Where [5] appears, read: cell cycle stage: early G1 (4.5 h after nocodazole release).
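Wherever melting temperature (median over replicates), in situ is given: HeLa Kyoto cells synchronized by double thymidine or nocodazole block, proteins quantified by TMT10plex mass spectrometry, three independent biological replicates.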
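Wherever solubility change mitosis vs G1/S (difference of NP-40 vs SDS log2 ratios) is given: synchronized HeLa Kyoto cells (double thymidine block for G1/S, nocodazole release for mitosis), protein amounts in NP-40 versus SDS lysates quantified by mass spectrometry, three biological replicates.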
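Wherever solubility in G1/S (NP-40 vs SDS abundance) is given: HeLa Kyoto cells arrested at G1/S by double thymidine block, proteins quantified by TMT10plex mass spectrometry in mild NP-40 versus SDS extracts, three biological replicates.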
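Wherever thermal stability score vs G1/S (z-score of summed log2 fold changes over temperatures) is given: synchronized HeLa Kyoto cells, proteins quantified by TMT10plex mass spectrometry, three biological replicates, mitosis taken 0.5 h after nocodazole release, G1/S directly after double thymidine block.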

Turning to “MENGYTYEDYKNTAEWLLSHTKHRPQVAIICGSGLGGLTDKLTQAQIFDYGEIPNFPRSTVPGHAGRLVFGFLNGRACVMMQGRFHMYEGYPLWKVTFPVRVFHLLGVDTLVVTNAAGGLNPKFEVGDIMLIRDHINLPGFSGQNPLRGPNDERFGDRFPAMSDAYDRTMRQRALSTWKQMGEQRELQEGTYVMVAGPSFETVAECRVLQKLGADAVGMSTVPEVIVARHCGLRVFGFSLITNKVIMDYESLEKANHEEVLAAGKQAAQKLEQFVSILMASIPLPDKAS [PNP]”, the melting temperature in the series on HeLa Kyoto [1] (cell cycle stage: G1/S) came out at 60.3 °C; in the series on HeLa Kyoto [1] (cell cycle stage: mitosis), 60.2 °C. Further, the thermal stability score in the series on HeLa Kyoto [2] (setting [5]) was -0.982; with HeLa Kyoto [2] (cell cycle stage: mitosis) it was -1.39. For the same sequence, the “solubility change mitosis (log2)” value in the series with HeLa Kyoto [3] was -0.144. The “solubility in G1/S (log2)” value with HeLa Kyoto [4] amounted to 0.301.

On to “MENSQLCKLFIGGLNVQTSESGLRGHFEAFGTLTDCVVVVNPQTKRSRCFGFVTYSNVEEADAAMAASPHAVDGNTVELKRAVSREDSARPGAHAKVKKLFVGGLKGDVAEGDLIEHFSQFGTVEKAEIIADKQSGKKRGFGFVYFQNHDAADKAAVVKFHPIQGHRVEVKKAVPKEDIYSGGGGGGSRSSRGGRGGRGRGGGRDQNGLSKGGGGGYNSYGGYGGGGGGGYNAYGGGGGGSSYGGSDYGNGFGGFGSYSQHQSSYGPMKSGGGGGGGGSSWGGRSNSGPYRGGYGGGGGYGGSSF [HNRNPA0]”, for which the values for the melting temperature in the series on HeLa Kyoto [1] (cell cycle stage: G1/S) and in the series on HeLa Kyoto [1] (cell cycle stage: mitosis) were 45.2 °C and 47 °C, respectively. Besides, the values for the thermal stability score with HeLa Kyoto [2] (setting [5]) and with HeLa Kyoto [2] (cell cycle stage: mitosis) were 3.72 and 12.8, respectively. Moreover, the “solubility change mitosis (log2)” value in the series with HeLa Kyoto [3] stood at 0.24. In addition, the “solubility in G1/S (log2)” value in the series on HeLa Kyoto [4] is -0.218.

For “MEPAVSEPMRDQVARTHLTEDTPKVNADIEKVNQNQAKRCTVIGGSGFLGQHMVEQLLARGYAVNVFDIQQGFDNPQVRFFLGDLCSRQDLYPALKGVNTVFHCASPPPSSNNKELFYRVNYIGTKNVIETCKEAGVQKLILTSSASVIFEGVDIKNGTEDLPYAMKPIDYYTETKILQERAVLGANDPEKNFLTTAIRPHGIFGPRDPQLVPILIEAARNGKMKFVIGNGKNLVDFTFVENVVHGHILAAEQLSRDSTLGGKAFHITNDEPIPFWTFLSRILTGLNYEAPKYHIPYWVAYYLALLLSLLVMVISPVIQLQPTFTPMRVALAGTFHYYSCERAKKAMGYQPLVTMDDAMERTVQSFRHLRRVK [NSDHL]”, the results for the melting temperature with HeLa Kyoto [1] (cell cycle stage: G1/S) and in the series on HeLa Kyoto [1] (cell cycle stage: mitosis) were 53.1 °C and 53 °C, respectively. For the same sequence, the results for the thermal stability score in the series with HeLa Kyoto [2] (setting [5]) and with HeLa Kyoto [2] (cell cycle stage: mitosis) were 1.89 and 1.38, respectively. Moreover, the “solubility change mitosis (log2)” value in the series with HeLa Kyoto [3] is -0.127. Besides, the “solubility in G1/S (log2)” value with HeLa Kyoto [4] was -0.0523.

For the sequence “MEPDIIRMYSSSPPPLDNGAEDDDDDEFGEFGGFSEVSPSGVGFVDFDTPDYTRPKEEFVPSNHFMPIHEFSENVDSLTSFKSIKNGNDKDITAELSAPVKGQSDVLLSTTSKEIISSEMLATSIDGMERPGNLNKVVEQRQNVGTLESFSPGDFRTNMNVVHQNKQLESCNGEKPPCLEILTNGFAVLETVNPQGTDDLDNVADSKGRKPLSTHSTEYNLDSVPSPAEEFADFATFSKKERIQLEEIECAVLNDREALTIRENNKINRVNELNSVKEVALGRSLDNKGDTDGEDQVCVSEISIVTNRGFSVEKQGLPTLQQDEFLQSGVQSKAWSLVDSADNSEAIRREQCKTEEKLDLLTSKCAHLCMDSVKTSDDEVGSPKEESRKFTNFQSPNIDPTEENDLDDSLSVKNGDSSNDFVTCNDINEDDFGDFGDFGSASGSTPPFVTGTQDSMSDATFEESSEHFPHFSEPGDDFGEFGDINAVSCQEETILTKSDLKQTSDNLSEECQLARKSSGTGTEPVAKLKNGQEGEIGHFDSVPNIQDDCNGFQDSDDFADFSSAGPSQVVDWNAFEDEQKDSCSWAAFGDQQATESHHRKEAWQSHRTDENIDTPGTPKTHSVPSATSKGAVASGHLQESATSVQTALLNRLERIFEACFPSILVPDAEEEVTSLKHLLETSTLPIKTREALPESGELLDVWTELQDIHDAHGLRYQWGGSHSNKKLLSSLGIDTRNILFTGNKKQPVIVPMYAAGLGMLEPTKEPLKPLSAAEKIASIGQTATMSPDMNTCTSDQFQESLPPVQFDWSSSGLTNPLDASGGSTLLNLDFFGPVDDSSSSSSTTIPGVDPELYELTTSKLEISTSSLKVTDAFARLMSTVEKTSTSTRKPKREEHLSEEAIKVIAGLPDLTFMHAKVLMFPATLTPSTSSQEKADG [AFTPH]”, the melting temperature with HeLa Kyoto [1] (cell cycle stage: G1/S) is 52 °C; with HeLa Kyoto [1] (cell cycle stage: mitosis), 51.9 °C. The thermal stability score in the series with HeLa Kyoto [2] (setting [5]) was -0.487; in the series on HeLa Kyoto [2] (cell cycle stage: mitosis), -1.23. The “solubility change mitosis (log2)” value in the series with HeLa Kyoto [3] is -0.029. Moreover, in the series with HeLa Kyoto [4], the “solubility in G1/S (log2)” value is -0.151.

As for “MEPFSCDTFVALPPATVDNRIIFGKNSDRLYDEVQEVVYFPAVVHDNLGERLKCTYIEIDQVPETYAVVLSRPAWLWGAEMGANEHGVCIGNEAVWGREEVCDEEALLGMDLVRLGLERADTAEKALNVIVDLLEKYGQGGNCTEGRMVFSYHNSFLIADRNEAWILETAGKYWAAEKVQEGVRNISNQLSITTKIAREHPDMRNYAKRKGWWDGKKEFDFAAAYSYLDTAKMMTSSGRYCEGYKLLNKHKGNITFETMMEILRDKPSGINMEGEFLTTASMVSILPQDSSLPCIHFFTGTPDPERSVFKPFIFVPHISQLLDTSSPTFELEDLVKKKSHFKPDRRHPLYQKHQQALEVVNNNEEKAKIMLDNMRKLEKELFREMESILQNKHLDVEKIVNLFPQCTKDEIQIYQSNLSVKVSS [SCRN3]”, the figures for the melting temperature with HeLa Kyoto [1] (cell cycle stage: G1/S) and with HeLa Kyoto [1] (cell cycle stage: mitosis) were 52.9 °C and 52.3 °C, respectively. The figures for the thermal stability score in the series with HeLa Kyoto [2] (setting [5]) and in the series with HeLa Kyoto [2] (cell cycle stage: mitosis) were -0.926 and -0.525, respectively. For the same sequence, the “solubility change mitosis (log2)” value in the series on HeLa Kyoto [3] was -0.25. The “solubility in G1/S (log2)” value in the series with HeLa Kyoto [4] was 0.271.

Regarding “MEPGRRGAAALLALLCVACALRAGRAQYERYSFRSFPRDELMPLESAYRHALDKYSGEHWAESVGYLEISLRLHRLLRDSEAFCHRNCSAAPQPEPAAGLASYPELRLFGGLLRRAHCLKRCKQGLPAFRQSQPSREVLADFQRREPYKFLQFAYFKANNLPKAIAAAHTFLLKHPDDEMMKRNMAYYKSLPGAEDYIKDLETKSYESLFIRAVRAYNGENWRTSITDMELALPDFFKAFYECLAACEGSREIKDFKDFYLSIADHYVEVLECKIQCEENLTPVIGGYPVEKFVATMYHYLQFAYYKLNDLKNAAPCAVSYLLFDQNDKVMQQNLVYYQYHRDTWGLSDEHFQPRPEAVQFFNVTTLQKELYDFAKENIMDDDEGEVVEYVDDLLELEETS [CRTAP]”, the figures for the melting temperature with HeLa Kyoto [1] (cell cycle stage: G1/S) and in the series on HeLa Kyoto [1] (cell cycle stage: mitosis) were 53.3 °C and 54.8 °C, respectively. The thermal stability score worked out at 3.61 in the series on HeLa Kyoto [2] (setting [5]) and 4.97 with HeLa Kyoto [2] (cell cycle stage: mitosis). The “solubility change mitosis (log2)” value with HeLa Kyoto [3] is -0.0925. Also, the “solubility in G1/S (log2)” value in the series with HeLa Kyoto [4] was determined as 0.35.

In the case of “MEPPSCIQDEPFPHPLEPEPGVSAQPGPGKPSDKRFRLWYVGGSCLDHRTTLPMLPWLMAEIRRRSQKPEAGGCGAPAAREVILVLSAPFLRCVPAPGAGASGGTSPSATQPNPAVFIFEHKAQHISRFIHNSHDLTYFAYLIKAQPDDPESQMACHVFRATDPSQVPDVISSIRQLSKAAMKEDAKPSKDNEDAFYNSQKFEVLYCGKVTVTHKKAPSSLIDDCMEKFSLHEQQRLKIQGEQRGPDPGEDLADLEVVVPGSPGDCLPEEADGTDTHLGLPAGASQPALTSSRVCFPERILEDSGFDEQQEFRSRCSSVTGVQRRVHEGSQKSQPRRRHASAPSHVQPSDSEKNRTMLFQVGRFEINLISPDTKSVVLEKNFKDISSCSQGIKHVDHFGFICRESPEPGLSQYICYVFQCASESLVDEVMLTLKQAFSTAAALQSAKTQIKLCEACPMHSLHKLCERIEGLYPPRAKLVIQRHLSSLTDNEQADIFERVQKMKPVSDQEENELVILHLRQLCEAKQKTHVHIGEGPSTISNSTIPENATSSGRFKLDILKNKAKRSLTSSLENIFSRGANRMRGRLGSVDSFERSNSLASEKDYSPGDSPPGTPPASPPSSAWQTFPEEDSDSPQFRRRAHTFSHPPSSTKRKLNLQDGRAQGVRSPLLRQSSSEQCSNLSSVRRMYKESNSSSSLPSLHTSFSAPSFTAPSFLKSFYQNSGRLSPQYENEIRQDTASESSDGEGRKRTSSTCSNESLSVGGTSVTPRRISWRQRIFLRVASPMNKSPSAMQQQDGLDRNELLPLSPLSPTMEEEPLVVFLSGEDDPEKIEERKKSKELRSLWRKAIHQQILLLRMEKENQKLEASRDELQSRKVKLDYEEVGACQKEVLITWDKKLLNCRAKIRCDMEDIHTLLKEGVPKSRRGEIWQFLALQYRLRHRLPNKQQPPDISYKELLKQLTAQQHAILVDLGRTFPTHPYFSVQLGPGQLSLFNLLKAYSLLDKEVGYCQGISFVAGVLLLHMSEEQAFEMLKFLMYDLGFRKQYRPDMMSLQIQMYQLSRLLHDYHRDLYNHLEENEISPSLYAAPWFLTLFASQFSLGFVARVFDIIFLQGTEVIFKVALSLLSSQETLIMECESFENIVEFLKNTLPDMNTSEMEKIITQVFEMDISKQLHAYEVEYHVLQDELQESSYSCEDSETLEKLERANSQLKRQNMDLLEKLQVAHTKIQALESNLENLLTRETKMKSLIRTLEQEKMAYQKTVEQLRKLLPADALVNCDLLLRDLNCNPNNKAKIGNKP [TBC1D4]”, the melting temperature in the series with HeLa Kyoto [1] (cell cycle stage: G1/S) was 51.1 °C; in the series on HeLa Kyoto [1] (cell cycle stage: mitosis), 50.5 °C. The thermal stability score with HeLa Kyoto [2] (setting [5]) is -0.833; in the series with HeLa Kyoto [2] (cell cycle stage: mitosis), -0.739. Also, the “solubility change mitosis (log2)” value in the series on HeLa Kyoto [3] was -0.0775. The “solubility in G1/S (log2)” value in the series on HeLa Kyoto [4] was -0.0729.

Regarding “MEPRAVGVSKQDIREQIWGYMESQNLADFPRPVHHRIPNFKGSYLACQNIKDLDVFARTQEVKVDPDKPLEGVRLLVLQSKKTLLVPTPRLRTGLFNKITPPPGATKDILRKCATSQGVRNYSVPIGLDSRVLVDLVVVGSVAVSEKGWRIGKGEGYADLEYAMMVSMGAVSKETPVVTIVHDCQVVDIPEELVEEHDITVDYILTPTRVIATGCKRPKPMGITWFKISLEMMEKIPILRSLRAREQQAGKDVTLQGEHQHLPEPGCQQTVPLSVGRRPPDTPGPETNSMEAAPGSPPGEGAPLAADVYVGNLPGDARVSDLKRALRELGSVPLRLTWQGPRRRAFLHYPDSAAAQQAVSCLQGLRLGTDTLRVALARQQRDK [MTHFSD]”, the melting temperature is 54.7 °C in the series with HeLa Kyoto [1] (cell cycle stage: G1/S) and 53.5 °C in the series on HeLa Kyoto [1] (cell cycle stage: mitosis). Besides, the thermal stability score was -0.334 in the series on HeLa Kyoto [2] (setting [5]) and -0.971 in the series on HeLa Kyoto [2] (cell cycle stage: mitosis). Besides, the “solubility change mitosis (log2)” value with HeLa Kyoto [3] stood at 0.0284. Further, the “solubility in G1/S (log2)” value with HeLa Kyoto [4] was -0.0248.
